Earlier results, collected in PMC7821625.

Key:
[1] = molecular target: fibronectin (Homo sapiens) (UniProt P02751)
[2] = molecular target: plasminogen (Homo sapiens) (UniProt P00747)
UniProt P00747, sequence (P00747 20-810): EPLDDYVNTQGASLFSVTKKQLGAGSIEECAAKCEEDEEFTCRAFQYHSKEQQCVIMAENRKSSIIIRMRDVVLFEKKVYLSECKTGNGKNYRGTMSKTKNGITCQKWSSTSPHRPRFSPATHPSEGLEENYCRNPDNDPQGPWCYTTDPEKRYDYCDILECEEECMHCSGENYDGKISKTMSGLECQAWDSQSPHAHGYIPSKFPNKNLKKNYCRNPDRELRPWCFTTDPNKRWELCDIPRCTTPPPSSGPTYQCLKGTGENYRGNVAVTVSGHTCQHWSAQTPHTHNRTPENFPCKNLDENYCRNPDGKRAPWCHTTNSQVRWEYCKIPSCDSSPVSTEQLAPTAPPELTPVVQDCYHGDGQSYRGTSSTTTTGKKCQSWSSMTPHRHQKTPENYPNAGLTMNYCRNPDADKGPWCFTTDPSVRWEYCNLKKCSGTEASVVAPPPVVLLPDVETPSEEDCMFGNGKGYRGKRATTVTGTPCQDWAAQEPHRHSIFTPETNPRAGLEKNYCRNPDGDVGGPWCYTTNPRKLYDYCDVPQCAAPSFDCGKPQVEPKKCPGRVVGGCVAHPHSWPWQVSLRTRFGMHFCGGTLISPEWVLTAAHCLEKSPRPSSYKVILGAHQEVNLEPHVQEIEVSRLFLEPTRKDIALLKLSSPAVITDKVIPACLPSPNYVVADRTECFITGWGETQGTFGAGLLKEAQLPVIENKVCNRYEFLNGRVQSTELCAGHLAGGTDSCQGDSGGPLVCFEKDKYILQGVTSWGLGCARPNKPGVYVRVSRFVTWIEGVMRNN

UniProt P02751, sequence (P02751 32-2477): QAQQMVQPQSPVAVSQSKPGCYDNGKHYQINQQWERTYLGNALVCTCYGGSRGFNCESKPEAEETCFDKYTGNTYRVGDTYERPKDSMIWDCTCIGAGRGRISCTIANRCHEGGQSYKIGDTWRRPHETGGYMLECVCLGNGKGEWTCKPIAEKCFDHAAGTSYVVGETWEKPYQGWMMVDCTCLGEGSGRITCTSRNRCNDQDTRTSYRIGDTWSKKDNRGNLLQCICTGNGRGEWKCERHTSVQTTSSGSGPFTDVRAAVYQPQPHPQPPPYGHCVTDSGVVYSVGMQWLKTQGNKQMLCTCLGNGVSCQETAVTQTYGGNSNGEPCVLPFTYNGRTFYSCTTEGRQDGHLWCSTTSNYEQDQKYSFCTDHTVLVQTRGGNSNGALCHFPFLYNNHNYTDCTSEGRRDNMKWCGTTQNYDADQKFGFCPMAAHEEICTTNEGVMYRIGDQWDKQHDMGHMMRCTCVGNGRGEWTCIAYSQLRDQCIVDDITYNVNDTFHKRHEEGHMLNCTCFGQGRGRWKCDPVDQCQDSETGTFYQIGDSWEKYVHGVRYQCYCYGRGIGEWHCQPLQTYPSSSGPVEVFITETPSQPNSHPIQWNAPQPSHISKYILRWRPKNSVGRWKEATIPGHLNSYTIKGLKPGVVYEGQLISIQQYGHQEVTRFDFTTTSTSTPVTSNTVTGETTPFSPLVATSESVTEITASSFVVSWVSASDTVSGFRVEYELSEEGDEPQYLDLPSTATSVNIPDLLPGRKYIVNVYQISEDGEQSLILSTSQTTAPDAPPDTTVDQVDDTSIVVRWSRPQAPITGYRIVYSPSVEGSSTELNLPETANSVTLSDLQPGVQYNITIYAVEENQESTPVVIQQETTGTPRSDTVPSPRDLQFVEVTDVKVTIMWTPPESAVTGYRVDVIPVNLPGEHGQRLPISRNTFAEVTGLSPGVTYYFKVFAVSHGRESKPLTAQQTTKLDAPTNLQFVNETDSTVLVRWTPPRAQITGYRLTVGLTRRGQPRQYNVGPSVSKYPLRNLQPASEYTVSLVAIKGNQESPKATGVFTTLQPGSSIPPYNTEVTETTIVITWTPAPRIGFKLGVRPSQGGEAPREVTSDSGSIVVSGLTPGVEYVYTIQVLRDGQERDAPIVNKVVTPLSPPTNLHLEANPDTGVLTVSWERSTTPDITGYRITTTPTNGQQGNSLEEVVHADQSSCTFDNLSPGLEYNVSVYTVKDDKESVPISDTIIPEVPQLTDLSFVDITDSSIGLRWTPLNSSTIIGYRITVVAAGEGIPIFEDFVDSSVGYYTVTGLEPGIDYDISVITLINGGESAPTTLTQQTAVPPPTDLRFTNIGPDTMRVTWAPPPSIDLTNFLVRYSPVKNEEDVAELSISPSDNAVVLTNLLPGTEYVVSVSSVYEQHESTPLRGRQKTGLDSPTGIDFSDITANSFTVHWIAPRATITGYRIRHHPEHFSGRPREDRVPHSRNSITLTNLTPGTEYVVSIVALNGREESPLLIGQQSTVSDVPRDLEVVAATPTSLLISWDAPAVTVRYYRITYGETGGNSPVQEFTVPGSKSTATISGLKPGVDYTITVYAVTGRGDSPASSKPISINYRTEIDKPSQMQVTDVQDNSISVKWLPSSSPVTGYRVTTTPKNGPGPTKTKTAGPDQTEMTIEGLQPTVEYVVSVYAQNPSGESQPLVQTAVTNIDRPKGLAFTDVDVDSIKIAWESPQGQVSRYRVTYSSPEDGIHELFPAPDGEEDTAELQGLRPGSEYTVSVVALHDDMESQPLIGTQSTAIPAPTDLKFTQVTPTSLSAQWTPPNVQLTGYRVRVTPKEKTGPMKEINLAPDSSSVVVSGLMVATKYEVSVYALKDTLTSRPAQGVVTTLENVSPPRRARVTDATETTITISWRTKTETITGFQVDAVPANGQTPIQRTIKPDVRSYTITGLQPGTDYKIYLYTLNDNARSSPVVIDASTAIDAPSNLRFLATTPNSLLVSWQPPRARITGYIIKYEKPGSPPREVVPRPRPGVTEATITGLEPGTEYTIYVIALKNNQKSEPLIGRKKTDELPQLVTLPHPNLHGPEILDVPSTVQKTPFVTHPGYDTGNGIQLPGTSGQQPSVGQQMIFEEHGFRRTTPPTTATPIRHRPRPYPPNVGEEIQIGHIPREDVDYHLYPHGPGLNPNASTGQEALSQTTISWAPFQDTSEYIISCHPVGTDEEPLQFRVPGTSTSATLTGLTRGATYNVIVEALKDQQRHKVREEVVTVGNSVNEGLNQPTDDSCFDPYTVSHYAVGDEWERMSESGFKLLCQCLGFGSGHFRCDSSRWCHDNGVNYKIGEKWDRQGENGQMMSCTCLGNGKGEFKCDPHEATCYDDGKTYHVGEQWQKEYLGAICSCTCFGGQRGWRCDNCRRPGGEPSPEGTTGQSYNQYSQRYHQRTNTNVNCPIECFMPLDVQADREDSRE

LigA LigA7'-13 (from UniProt Q72MA6)
Kd [1]: 126 nM
Kd [2]: 1200 nM
